In PMC3115801 (The Journal of Cell Biology, 2011):

Target: T1, bacterially purified Epac1 (amino acids 149–882) (human, UniProt O95398-3 149-881)
T1 sequence (looked up): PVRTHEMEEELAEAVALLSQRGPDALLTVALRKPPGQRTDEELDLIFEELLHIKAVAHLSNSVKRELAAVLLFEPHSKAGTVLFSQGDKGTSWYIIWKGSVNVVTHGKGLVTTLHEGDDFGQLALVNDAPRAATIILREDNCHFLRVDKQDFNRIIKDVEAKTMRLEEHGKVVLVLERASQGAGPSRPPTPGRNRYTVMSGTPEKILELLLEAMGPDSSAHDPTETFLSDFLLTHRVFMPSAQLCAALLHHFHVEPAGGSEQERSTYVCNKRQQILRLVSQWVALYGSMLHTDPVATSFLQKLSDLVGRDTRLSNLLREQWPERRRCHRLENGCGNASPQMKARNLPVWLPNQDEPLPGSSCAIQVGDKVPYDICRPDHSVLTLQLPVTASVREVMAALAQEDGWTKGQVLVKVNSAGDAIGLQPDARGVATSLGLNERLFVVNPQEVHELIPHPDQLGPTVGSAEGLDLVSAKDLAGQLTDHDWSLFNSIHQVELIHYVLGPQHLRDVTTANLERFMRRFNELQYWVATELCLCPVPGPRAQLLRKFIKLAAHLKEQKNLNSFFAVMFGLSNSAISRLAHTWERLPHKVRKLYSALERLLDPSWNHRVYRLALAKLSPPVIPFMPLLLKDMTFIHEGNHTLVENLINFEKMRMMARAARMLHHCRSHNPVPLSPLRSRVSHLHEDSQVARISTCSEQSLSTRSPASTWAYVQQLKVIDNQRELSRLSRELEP
Experiment: pull-down

B1: GST-tagged bacterially purified ZNF domain of RanBP2 (domain or fragment, UniProt P49792 1341-1819, looked up)
chain: NLNFEFQVAKKEGSWWHCNSCSLKNASTAKKCVSCQNLNPSNKELVGPPLAETVFTPKTSPENVQDRFALVTPKKEGHWDCSICLVRNEPTVSRCIACQNTKSANKSGSSFVHQASFKFGQGDLPKPINSDFRSVFSTKEGQWDCSACLVQNEGSSTKCAACQNPRKQSLPATSIPTPASFKFGTSETSKTLKSGFEDMFAKKEGQWDCSSCLVRNEANATRCVACQNPDKPSPSTSVPAPASFKFGTSETSKAPKSGFEGMFTKKEGQWDCSVCLVRNEASATKCIACQNPGKQNQTTSAVSTPASSETSKAPKSGFEGMFTKKEGQWDCSVCLVRNEASATKCIACQNPGKQNQTTSAVSTPASSETSKAPKSGFEGMFTKKEGQWDCSVCLVRNEASATKCIACQCPSKQNQTTAISTPASSEISKAPKSGFEGMFIRKGQWDCSVCCVQNESSSLKCVACDASKPTHKPIAEAPS
  binding result: binds
